Measured values from paper PMC5896931 (Molecular Biology of the Cell, 2018).

T1: Aim21 (Altered Inheritance of Mitochondria 21), full length, 6His-SUMO tag cleaved (budding yeast, UniProt P40563 1-679)
T1 sequence (looked up): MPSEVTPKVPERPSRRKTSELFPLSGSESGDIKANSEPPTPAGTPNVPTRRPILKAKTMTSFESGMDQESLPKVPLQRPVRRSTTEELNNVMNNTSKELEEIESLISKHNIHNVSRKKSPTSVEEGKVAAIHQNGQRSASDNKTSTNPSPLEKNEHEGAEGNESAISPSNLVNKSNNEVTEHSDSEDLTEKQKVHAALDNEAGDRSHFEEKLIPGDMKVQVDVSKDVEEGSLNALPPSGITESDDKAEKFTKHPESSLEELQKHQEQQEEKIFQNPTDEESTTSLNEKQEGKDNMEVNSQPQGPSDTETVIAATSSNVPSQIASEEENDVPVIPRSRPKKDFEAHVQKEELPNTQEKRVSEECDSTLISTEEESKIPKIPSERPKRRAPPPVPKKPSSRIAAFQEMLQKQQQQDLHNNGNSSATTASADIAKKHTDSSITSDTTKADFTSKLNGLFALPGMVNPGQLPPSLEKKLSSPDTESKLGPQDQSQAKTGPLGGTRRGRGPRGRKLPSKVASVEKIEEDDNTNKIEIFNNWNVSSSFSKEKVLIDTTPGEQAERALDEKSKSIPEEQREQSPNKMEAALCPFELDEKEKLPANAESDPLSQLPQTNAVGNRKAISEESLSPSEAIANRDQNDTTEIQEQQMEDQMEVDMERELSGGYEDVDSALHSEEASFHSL

T2: 6His-SUMO-Cap2 (budding yeast, UniProt P13517 1-287)
T2 sequence (looked up): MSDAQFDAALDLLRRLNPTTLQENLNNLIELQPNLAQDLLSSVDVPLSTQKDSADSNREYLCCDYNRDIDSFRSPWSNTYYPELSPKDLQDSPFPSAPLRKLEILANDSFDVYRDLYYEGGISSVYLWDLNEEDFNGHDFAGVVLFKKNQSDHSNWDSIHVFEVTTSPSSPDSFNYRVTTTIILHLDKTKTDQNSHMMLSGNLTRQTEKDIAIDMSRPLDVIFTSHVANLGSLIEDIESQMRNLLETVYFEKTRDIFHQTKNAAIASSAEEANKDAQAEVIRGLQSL

B1: 6His-SUMO-Tda2 (natural protein, budding yeast, UniProt P40045 1-126, looked up)
chain: MSMQIEIKDGRSDNSPLPERKLVTLIQESYDSLKDDNEINLSTESTSNLLIKLVLEKLEKHSSLYKYIASVTTLNIEGLNEENANFSLKNDIGASWESKKDGIFNYKLEDKNNNECYLITILWLHK
B2: Cap1, 6His-SUMO tag cleaved (natural protein, budding yeast, UniProt P28495 1-268, looked up)
chain: MSSSKFEEVINKIINDSPPGELREVYDDLIKITSENSKNTILDAIENYNVQNCIPIEVNGNSVIISKYNKEGAKFFDPVNSVIFSVNHLERKGLDIEPYEFTHAKIEKGQLKELHDKLHEYLLQSFPGDVSFAVYPVPEEISKISIIIVSTKYNPNNFWNGHWRSSYIYDLETRELSGQISTQVHYYEDGNVSFQSGKDINQSNVDDVVCTIRDIETNFENDLDLSFFDLNEKQFKALRRRLPVTRSKINWGSAIGSYRLGKNAAEGK

How the values were obtained:
[1] = biological target: T1, Aim21 (Altered Inheritance of …); test: pull-down
6His-SUMO-Cap2 = biological target: T2, 6His-SUMO-Cap2; test: pull-down

binding result [1]	binding result (6His-SUMO-Cap2)	Binder
binds		B1
	binds	B2
